Data published in patent US20160215020A1 (published 2016).

Target: complement component C3 (human) (human, UniProt P01024 23-1663)
Test: cell-based or functional assay

- IC50, classical complement inhibition assay (C3b deposition ELISA), as a function of CA28 moiety concentration: 1.93 µM
B1: (CA28-AEEAc)8-PEG40k (peptide)
peptide: ICVWQDWGAHRCTK
modifications: N-terminal acetyl; (1Me)Trp at position 4; disulfide Cys2-Cys12; AEEAc between Thr13 and Lys; C-terminal amide; Lys side chain coupled to an arm of an eight-arm 40 kD PEG (NOF SUNBRIGHT HGEO-400GS)
